Measured values reported in patent US7589207B2, “Cyclohexyl compounds as CCR5 antagonists” (SmithKline Beecham Corporation, priority 2002, dated 2009).

Target: T1, human CCR5 chemokine receptor (Homo sapiens, UniProt P51681)
T1 construct: host or cells: Chinese Hamster Ovary (CHO) cells; membranes prepared from the cell pellet
Assay: CC-Chemokine Receptor-5 binding by Scintillation Proximity Assay (CCR5 SPA), displacement of 125I-MIP1α
Settings: standard compound, 14-point concentration-response curve in triplicate, starting concentration 1 μM
Experimental: CC-Chemokine Receptor-5 Binding by Scintillation Proximity Assay (CCR5 SPA) Scintillation Proximity Assay for the Human CC-Chemokine Receptor, CCR-5
This protocol describes a high-throughput screen using SPA binding to identify compounds that inhibit binding of ^125I-MIP1α to the human CCR5 chemokine receptor.
Human CCR5 receptors were expressed in Chinese Hamster Ovary (CHO) cells, registration # 12025. Cells were grown in suspension and a 50 to 80 ml CCR5 cell pellet was prepared. […]
The saturation curve binding experiment is performed by adding varying amounts of [^125I]MIP1α (0-8.5 nM to membranes and beads in concentrations chosen from the optimal protein/bead ratio. The data is analyzed using a non-linear curve-fitting program. The Kd and Bmax are derived from the curve. […]

T1 sequence (P51681 whole entry): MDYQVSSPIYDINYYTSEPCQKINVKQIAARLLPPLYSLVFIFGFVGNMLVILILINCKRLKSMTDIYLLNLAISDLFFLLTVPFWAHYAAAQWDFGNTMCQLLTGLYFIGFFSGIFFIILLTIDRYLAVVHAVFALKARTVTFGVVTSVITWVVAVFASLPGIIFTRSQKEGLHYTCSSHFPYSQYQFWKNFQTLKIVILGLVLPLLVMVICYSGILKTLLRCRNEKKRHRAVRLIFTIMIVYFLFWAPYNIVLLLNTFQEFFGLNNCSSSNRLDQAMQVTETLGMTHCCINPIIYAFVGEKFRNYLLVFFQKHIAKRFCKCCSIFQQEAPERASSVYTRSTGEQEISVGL

“MIP1α: natural chemokine ligand of CCR5, used as the standard compound in the CCR5 SPA binding assay” was tested, and the “average historical pKi” value was 7.6.
